According to paper PMC3285366:

Target: T1, Mps1(1–239) (human), P33981
T1 chain: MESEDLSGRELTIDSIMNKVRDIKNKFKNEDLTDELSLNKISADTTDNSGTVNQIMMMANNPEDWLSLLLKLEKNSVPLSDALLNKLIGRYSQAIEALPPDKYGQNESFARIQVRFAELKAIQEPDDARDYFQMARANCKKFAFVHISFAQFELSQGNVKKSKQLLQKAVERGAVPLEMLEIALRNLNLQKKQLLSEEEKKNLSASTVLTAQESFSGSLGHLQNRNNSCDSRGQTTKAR
Assay: SEC
Conditions: remark: other sources report otherwise

B1: Mps1(1–239), P33981 1-239 (domain or fragment)
chain: MESEDLSGRELTIDSIMNKVRDIKNKFKNEDLTDELSLNKISADTTDNSGTVNQIMMMANNPEDWLSLLLKLEKNSVPLSDALLNKLIGRYSQAIEALPPDKYGQNESFARIQVRFAELKAIQEPDDARDYFQMARANCKKFAFVHISFAQFELSQGNVKKSKQLLQKAVERGAVPLEMLEIALRNLNLQKKQLLSEEEKKNLSASTVLTAQESFSGSLGHLQNRNNSCDSRGQTTKAR
  stoichiometry N: 2
